Measured values reported in IntAct's records for PubMed 39009827.

Tests used:
[1] = biological target: eps15_human EPS15 (UniProt P42566)
[2] = biological target: ima3_human KPNA4 (UniProt O00629)
[3] = biological target: ima3_human KPNA4 (UniProt O00629); remark: listed apart in the source
[4] = biological target: terf1_human TERF1 (UniProt P54274)
[5] = biological target: G3BP2 (UniProt Q9UN86)
[6] = biological target: oxsr1_human OXSR1 (UniProt O95747)
[7] = biological target: src_human SRC (UniProt P12931)

oxsr1_human OXSR1, sequence (O95747 whole entry, looked up): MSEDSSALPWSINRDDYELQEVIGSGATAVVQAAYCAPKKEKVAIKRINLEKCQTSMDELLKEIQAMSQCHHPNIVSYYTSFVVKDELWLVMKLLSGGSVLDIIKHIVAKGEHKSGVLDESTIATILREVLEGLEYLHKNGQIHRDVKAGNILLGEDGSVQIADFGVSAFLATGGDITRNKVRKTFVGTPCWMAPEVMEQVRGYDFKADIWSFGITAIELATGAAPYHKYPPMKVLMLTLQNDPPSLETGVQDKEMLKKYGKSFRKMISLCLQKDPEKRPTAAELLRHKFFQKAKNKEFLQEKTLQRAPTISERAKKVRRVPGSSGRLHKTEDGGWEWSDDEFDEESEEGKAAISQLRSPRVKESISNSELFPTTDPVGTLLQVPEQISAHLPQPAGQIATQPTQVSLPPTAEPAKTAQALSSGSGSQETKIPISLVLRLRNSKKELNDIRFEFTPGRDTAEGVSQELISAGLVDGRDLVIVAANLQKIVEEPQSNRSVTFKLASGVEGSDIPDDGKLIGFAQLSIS
ima3_human KPNA4, sequence (O00629 whole entry): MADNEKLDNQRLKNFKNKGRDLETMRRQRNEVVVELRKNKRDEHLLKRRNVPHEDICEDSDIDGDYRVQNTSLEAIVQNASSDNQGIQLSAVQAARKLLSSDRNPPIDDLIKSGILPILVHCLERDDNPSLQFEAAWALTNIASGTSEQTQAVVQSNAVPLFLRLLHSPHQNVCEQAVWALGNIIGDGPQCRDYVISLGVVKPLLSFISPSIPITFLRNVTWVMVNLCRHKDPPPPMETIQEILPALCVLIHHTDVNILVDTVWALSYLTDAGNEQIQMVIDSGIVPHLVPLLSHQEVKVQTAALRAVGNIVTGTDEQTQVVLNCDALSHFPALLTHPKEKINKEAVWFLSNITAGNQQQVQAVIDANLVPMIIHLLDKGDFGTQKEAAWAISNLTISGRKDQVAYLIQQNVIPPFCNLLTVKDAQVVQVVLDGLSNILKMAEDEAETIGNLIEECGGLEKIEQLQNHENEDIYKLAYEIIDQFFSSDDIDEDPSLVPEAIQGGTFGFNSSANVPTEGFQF
G3BP2, sequence (Q9UN86 whole entry): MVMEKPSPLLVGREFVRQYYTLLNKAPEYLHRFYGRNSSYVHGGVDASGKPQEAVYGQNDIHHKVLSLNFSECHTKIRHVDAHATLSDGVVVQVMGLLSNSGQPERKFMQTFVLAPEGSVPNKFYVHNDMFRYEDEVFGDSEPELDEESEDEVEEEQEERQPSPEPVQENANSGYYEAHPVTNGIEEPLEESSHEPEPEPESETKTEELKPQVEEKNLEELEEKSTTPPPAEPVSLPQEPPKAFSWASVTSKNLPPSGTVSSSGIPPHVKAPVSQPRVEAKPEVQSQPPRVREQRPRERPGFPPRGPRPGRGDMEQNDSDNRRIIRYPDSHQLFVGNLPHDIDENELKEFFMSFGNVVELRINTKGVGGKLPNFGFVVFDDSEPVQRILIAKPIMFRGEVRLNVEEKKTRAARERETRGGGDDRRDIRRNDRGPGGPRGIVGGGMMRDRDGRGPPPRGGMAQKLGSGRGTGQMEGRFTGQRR
terf1_human TERF1, sequence (P54274 whole entry): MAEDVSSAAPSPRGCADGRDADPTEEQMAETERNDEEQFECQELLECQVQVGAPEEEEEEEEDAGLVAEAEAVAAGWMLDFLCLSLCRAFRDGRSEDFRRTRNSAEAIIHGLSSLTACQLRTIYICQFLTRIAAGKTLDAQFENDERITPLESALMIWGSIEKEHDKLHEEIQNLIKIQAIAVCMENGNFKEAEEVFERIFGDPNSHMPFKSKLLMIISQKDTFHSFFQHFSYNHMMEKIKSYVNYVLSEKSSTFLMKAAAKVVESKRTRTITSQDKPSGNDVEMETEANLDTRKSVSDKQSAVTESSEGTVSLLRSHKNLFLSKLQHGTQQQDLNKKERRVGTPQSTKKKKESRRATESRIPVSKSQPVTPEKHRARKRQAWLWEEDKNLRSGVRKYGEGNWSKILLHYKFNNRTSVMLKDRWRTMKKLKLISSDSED
eps15_human EPS15, sequence (P42566 whole entry): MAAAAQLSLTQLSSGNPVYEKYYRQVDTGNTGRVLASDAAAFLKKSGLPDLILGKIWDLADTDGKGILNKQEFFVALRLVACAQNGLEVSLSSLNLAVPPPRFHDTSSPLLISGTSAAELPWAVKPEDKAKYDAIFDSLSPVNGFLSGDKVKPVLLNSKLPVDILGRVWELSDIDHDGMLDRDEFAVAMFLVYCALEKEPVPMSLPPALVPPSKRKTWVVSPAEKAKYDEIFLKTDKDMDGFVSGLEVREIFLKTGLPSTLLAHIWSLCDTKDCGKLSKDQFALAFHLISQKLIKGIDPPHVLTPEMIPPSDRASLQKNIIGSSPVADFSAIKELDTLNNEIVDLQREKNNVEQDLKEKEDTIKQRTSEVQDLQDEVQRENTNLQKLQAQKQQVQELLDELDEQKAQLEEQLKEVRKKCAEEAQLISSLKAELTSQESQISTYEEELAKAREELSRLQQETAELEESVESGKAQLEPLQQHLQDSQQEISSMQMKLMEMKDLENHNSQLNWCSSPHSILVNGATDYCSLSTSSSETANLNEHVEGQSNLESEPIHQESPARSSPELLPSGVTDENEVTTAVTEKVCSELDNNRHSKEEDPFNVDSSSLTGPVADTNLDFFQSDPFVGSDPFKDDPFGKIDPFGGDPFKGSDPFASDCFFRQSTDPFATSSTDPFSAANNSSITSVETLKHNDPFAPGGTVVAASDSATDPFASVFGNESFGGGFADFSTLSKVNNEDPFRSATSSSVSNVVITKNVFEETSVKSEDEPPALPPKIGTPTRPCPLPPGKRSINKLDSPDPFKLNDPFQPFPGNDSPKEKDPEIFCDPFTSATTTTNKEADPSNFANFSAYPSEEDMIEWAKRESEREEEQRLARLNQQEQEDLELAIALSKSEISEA
Endothelial PAS domain-containing protein 1 (Homo sapiens), Q99814 F540L, sequence (Q99814 whole entry F540L, the tested form may be a part): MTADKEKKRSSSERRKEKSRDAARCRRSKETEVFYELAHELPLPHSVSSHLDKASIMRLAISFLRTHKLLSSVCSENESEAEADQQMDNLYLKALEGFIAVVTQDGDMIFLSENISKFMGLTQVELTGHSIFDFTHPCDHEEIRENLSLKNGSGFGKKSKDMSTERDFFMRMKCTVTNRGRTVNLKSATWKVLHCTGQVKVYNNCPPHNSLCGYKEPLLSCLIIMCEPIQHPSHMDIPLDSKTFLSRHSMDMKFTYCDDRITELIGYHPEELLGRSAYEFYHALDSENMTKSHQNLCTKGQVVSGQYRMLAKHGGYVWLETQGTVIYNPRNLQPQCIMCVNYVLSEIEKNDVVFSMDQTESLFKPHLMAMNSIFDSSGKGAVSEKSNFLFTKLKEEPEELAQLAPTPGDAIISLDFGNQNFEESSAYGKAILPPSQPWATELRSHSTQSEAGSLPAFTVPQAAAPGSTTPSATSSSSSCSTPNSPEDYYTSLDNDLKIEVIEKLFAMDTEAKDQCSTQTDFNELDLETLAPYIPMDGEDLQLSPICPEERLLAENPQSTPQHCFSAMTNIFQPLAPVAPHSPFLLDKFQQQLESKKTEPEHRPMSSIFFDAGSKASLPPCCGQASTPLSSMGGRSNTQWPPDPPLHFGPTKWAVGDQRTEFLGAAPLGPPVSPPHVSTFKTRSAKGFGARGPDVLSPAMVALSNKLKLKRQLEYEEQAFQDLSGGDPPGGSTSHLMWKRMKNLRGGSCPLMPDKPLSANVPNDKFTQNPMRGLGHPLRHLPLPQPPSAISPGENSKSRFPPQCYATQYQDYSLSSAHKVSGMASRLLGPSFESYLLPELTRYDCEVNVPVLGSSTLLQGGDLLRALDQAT
ADP-ribosylation factor-like protein 13B (Homo sapiens), Q3SXY8 N255K, sequence (Q3SXY8 whole entry N255K): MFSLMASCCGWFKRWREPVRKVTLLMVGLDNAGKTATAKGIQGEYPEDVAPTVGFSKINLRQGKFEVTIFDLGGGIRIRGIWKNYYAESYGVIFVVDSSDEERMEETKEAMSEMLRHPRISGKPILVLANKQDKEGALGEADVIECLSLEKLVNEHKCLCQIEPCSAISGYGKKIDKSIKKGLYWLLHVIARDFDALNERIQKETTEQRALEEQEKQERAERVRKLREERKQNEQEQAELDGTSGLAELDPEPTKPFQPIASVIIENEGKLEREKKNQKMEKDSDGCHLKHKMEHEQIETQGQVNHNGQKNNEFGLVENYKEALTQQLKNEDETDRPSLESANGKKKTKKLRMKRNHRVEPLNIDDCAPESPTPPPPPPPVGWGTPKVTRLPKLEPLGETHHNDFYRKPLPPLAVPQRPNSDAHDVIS

ADP-ribosylation factor-like protein 13B (Homo sapiens), Q3SXY8 N255K
effect of a mutation on the interaction [1]: decreasing interaction strength

CREB-binding protein (Homo sapiens), Q92793 K13E
effect of a mutation on the interaction [2]: causing an interaction | effect of a mutation on the interaction [3]: disrupting interaction strength

Endothelial PAS domain-containing protein 1 (Homo sapiens), Q99814 F540L
effect of a mutation on the interaction [4]: decreasing interaction strength

Histone-lysine N-methyltransferase, H3 lysine-36 specific (Homo sapiens), Q96L73 L1797P
effect of a mutation on the interaction [5]: decreasing interaction strength

Titin (Homo sapiens), Q8WZ42 I34306N
effect of a mutation on the interaction [6]: decreasing interaction strength

Titin (Homo sapiens), Q8WZ42 I34306S
effect of a mutation on the interaction [6]: decreasing interaction strength

Titin (Homo sapiens), Q8WZ42 I34306T
effect of a mutation on the interaction [6]: decreasing interaction strength

Voltage-dependent T-type calcium channel subunit alpha-1H (Homo sapiens), O95180 P684H
effect of a mutation on the interaction [7]: decreasing interaction strength

Voltage-dependent T-type calcium channel subunit alpha-1H (Homo sapiens), O95180 P684R
effect of a mutation on the interaction [7]: decreasing interaction strength
